The target of one assay is T1, murine PTK7 (murine, UniProt Q8BKG3 23-1062).
T1 construct: whole, on cells; also called mouse antigen; PTK7 on murine 3T3L1 and M158 cells
T1 sequence (looked up): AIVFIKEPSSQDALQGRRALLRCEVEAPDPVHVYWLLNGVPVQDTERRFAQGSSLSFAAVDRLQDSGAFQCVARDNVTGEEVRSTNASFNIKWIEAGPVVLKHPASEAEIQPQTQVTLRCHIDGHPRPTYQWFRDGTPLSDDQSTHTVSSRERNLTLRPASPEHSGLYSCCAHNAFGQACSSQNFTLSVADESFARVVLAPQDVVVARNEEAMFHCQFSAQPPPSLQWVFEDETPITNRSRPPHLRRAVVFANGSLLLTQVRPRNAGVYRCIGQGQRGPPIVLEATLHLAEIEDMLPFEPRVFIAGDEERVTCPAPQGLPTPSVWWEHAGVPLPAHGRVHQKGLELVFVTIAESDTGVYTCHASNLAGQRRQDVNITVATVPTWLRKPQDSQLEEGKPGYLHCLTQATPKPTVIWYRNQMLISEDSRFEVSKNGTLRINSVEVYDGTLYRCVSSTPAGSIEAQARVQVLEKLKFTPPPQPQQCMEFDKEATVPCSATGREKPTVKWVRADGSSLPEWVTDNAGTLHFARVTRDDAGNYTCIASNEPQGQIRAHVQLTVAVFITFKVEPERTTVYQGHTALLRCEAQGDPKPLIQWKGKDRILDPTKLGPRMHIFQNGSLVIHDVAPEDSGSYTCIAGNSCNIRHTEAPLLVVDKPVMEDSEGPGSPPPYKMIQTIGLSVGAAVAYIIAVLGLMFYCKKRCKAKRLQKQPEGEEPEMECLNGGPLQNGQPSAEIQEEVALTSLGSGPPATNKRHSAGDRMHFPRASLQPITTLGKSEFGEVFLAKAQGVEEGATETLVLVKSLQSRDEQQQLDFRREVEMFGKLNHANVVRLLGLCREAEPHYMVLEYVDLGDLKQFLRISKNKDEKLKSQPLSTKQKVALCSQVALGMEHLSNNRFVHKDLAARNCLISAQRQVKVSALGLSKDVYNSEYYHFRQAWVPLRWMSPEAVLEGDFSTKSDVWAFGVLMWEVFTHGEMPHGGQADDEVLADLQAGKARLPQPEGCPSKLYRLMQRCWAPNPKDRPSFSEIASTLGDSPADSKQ
The assay is described as follows: flow cytometry dose titration (200 nM-0.0032 nM) on murine 3T3L1 and M158 cells; secondary APC-conjugated human IgG-Fc antibody. As for the experimental part: (§1) To evaluate the species cross reactivity of the custom CTX181 antibody, its binding affinity was assessed in murine 3T3L1 fibroblast and murine M158 breast cancer cell lines and compared to its binding affinity in human Saos2 (osteosarcoma), A498 (renal carcinoma) and HCC70 (breast cancer) cell lines. For each cell line, a dose titration binding assay (200 nM-0.0032 nM final CTX181 antibody) was run on 2×10⁶ cells at each concentration. Cells were stained 30 min on ice with CTX181 antibody, followed by washing and 15 min stain at RT with secondary APC fluorophore conjugated human IgG-Fc antibody. Cells were assessed for staining on a Novocyte flow cytometer (Acea Biosciences).
For orientation: Flow cytometry measures light scatter and fluorescence of single cells or particles in a stream.

Assay [1] concerns the target T2, human protein tyrosine kinase 7 (PTK7) (human, UniProt Q13308 31-1070).
T2 construct: whole, on cells; also called humPTK7; colon carcinoma kinase 4 (CCK4)
T2 sequence (looked up): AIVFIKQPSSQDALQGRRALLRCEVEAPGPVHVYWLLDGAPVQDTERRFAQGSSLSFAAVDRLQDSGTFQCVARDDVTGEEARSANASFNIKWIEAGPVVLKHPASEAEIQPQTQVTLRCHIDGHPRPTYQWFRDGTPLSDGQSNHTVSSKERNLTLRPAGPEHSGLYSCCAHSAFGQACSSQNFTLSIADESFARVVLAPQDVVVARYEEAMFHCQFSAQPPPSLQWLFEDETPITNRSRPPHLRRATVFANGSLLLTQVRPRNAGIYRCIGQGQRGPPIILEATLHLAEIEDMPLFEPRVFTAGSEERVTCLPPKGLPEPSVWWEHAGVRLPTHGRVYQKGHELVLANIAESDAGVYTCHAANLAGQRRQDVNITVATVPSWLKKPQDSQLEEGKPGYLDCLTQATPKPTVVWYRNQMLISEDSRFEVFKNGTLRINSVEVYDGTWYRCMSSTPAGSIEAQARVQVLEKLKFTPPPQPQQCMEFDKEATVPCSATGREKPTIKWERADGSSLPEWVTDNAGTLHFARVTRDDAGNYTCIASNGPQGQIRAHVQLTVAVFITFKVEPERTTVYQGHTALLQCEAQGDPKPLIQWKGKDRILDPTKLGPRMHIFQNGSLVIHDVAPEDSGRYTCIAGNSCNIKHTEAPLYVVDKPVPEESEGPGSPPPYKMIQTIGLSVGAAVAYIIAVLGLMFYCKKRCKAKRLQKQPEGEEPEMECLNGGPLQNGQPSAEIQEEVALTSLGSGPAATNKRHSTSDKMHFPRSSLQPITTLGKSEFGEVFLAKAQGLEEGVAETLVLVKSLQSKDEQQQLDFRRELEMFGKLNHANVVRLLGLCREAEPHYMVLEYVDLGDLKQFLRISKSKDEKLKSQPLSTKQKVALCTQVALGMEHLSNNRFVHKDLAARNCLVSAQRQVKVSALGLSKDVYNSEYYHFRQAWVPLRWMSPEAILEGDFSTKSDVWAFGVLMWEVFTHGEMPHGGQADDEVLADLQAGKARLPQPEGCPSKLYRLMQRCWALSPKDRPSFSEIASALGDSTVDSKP
Description: flow cytometry dose titration (200 nM-0.0032 nM) on human Saos2, A498 and HCC70 cells; secondary APC-conjugated human IgG-Fc antibody. As for the experimental part:
as §1

B1: CTX181 mAb (custom recombinant monoclonal anti-PTK7 antibody, Creative Biolabs) (antibody, human IgG1, kappa, V domains shown)
VH: QVQLVESGGGVVQPGRSLRLSCAASGFTFSSYGMHWVRQAPGKGLEWVAVIWDDGSNKYYVDSVKGRFTISRDNSKNTLYLQMNSLRAEDTAVYYCARDDYYGSGSFNSYYGTDVWGQGTTVTVSS
VL: EIVLTQSPATLSLSPGERATLSCRASQSVSIYLAWYQQKPGQAPRLLIYDASNRATGIPARFSGSGSGTDFTLTISSLEPEDFAVYYCQQRSNWPPFTFGPGTKVDIKR
notes: Used biotinylated for immunohistochemistry; In flow cytometry it was detected with a secondary APC-conjugated human IgG-Fc antibody; also called CTX181 antibody; CTX181 Ab
As for B1, the binding result (in the assay with murine PTK7; in assay [1]) was “binds” in each case.

(Values after patent US20200140815A1 (CRISPR THERAPEUTICS, published 2020).)
